This assay deals with T1, His-p97 F539A (human, UniProt P55072 1-806, F539A).
T1 construct: Homohexamer in the cryo-EM structure; also called F539A (D2); D2 mutant
Put plainly: cross-linking; purified p97 F539A (1.26 mg/mL) and its adaptor (0.66 mg/mL) in 50mM HEPES pH 7.5, 30mM KCl, 10, 50 or 100 μM DTSSP, 30 min room temperature; trypsin, LC-MS/MS. Conditions: both partners purified.

The values below come from article PMC11214410 (iScience, 2024).

T1 sequence (P55072 whole entry F539A): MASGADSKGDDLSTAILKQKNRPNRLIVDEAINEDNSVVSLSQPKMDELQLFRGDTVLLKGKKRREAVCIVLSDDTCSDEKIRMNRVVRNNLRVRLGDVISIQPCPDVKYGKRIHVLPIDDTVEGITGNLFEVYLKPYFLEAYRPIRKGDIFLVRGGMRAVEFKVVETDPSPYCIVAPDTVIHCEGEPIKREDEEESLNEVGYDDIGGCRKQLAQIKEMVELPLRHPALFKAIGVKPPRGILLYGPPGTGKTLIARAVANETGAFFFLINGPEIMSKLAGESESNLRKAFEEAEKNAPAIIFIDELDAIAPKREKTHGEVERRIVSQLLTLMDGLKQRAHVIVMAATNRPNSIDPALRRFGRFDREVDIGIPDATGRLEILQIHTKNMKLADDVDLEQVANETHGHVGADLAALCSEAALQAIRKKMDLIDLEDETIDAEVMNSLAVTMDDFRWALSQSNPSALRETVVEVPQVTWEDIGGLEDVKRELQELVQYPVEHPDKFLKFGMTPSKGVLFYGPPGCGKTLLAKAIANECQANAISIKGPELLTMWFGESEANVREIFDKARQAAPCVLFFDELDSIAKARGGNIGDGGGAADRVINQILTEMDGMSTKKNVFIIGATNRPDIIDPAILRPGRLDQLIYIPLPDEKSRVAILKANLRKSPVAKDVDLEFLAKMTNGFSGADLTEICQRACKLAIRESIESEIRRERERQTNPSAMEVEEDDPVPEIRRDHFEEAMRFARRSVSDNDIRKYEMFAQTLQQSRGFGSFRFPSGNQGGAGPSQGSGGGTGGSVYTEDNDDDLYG

B1: Npl4 (untagged) (natural protein, rat, UniProt Q9ES54 1-608, looked up)
chain: MAESIIIRVQSPDGVKRITATKRETAATFLKKVAKEFGFQNNGFSVYINRNKTGEITASSSKSLHLLKIKHGDLLFLFPSSLAGPSSEMETSTSVGLKAFGAPHVVEDEIDQYLSKQDGKIYRSRDPQLCRHGPLGKCVHCVPLEPFDEDYLNHLEPPVKHMSFHAYIRKLTGGADKGKFVALENISCKIKSGCEGHLPWPNGICTKCQPSAITLNRQKYRHVDNIMFENHTVADRFLDFWRKTGNQHFGYLYGRYTEHKDIPLGIRAEVAAIYEPPQIGTQNSLELLEDPKAEVVDEIASKLGLRKVGWIFTDLVSEDTRKGTVRYSRNKDTYFLSSEECITAGDFQNKHPNICRLSPDGHFGSKFVTAVATGGPDNQVHFEGYQVSNQCMALVRDECLLPCKDAPELGYAKESSSEQYVPDVFYKDIDKFGNEITQLARPLPVEYLIIDITTTFPKDPVYTFSISQNPFPIENRDVLGETQDFHSLATYLSQNTSSVFLDTISDFHLLLFLVTNEVMPLQDSISLLLEAVRTRNEELAQTWKKSEQWATIEQLCSTVGVQLPGLHEFGAVGGSARAATSAMWACQHCTFMNQPGTGHCEMCSLPRT
notes: Npl4, untagged, expressed from pET30-Npl4; the cross-linking data were searched against rat Npl4; In the cryo-EM and cross-linking experiments Npl4 stood as part of the Ufd1/Npl4 heterodimer; source: E. coli BL21 (DE3), in lysate
B1: the binding result is reported as “binds”.
